Key:
[1] = molecular target: human CTLA-4 (human) (UniProt P16410); assay: FACS binding CHO-K1 cells expressing human CTLA-4
[2] = molecular target: CD47 (UniProt Q08722); assay: FACS binding CHO-K1 cells expressing CD47
Sequence of CD47 (Q08722 19-323): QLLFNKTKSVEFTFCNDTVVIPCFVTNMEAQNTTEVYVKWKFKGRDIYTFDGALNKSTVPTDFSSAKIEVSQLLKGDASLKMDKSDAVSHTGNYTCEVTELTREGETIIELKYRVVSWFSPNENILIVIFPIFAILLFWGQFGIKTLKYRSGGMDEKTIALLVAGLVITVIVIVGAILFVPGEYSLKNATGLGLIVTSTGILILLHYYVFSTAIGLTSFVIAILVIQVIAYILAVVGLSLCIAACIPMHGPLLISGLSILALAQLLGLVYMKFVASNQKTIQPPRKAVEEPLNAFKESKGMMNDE

Sequence of human CTLA-4 (human) (P16410 36-223): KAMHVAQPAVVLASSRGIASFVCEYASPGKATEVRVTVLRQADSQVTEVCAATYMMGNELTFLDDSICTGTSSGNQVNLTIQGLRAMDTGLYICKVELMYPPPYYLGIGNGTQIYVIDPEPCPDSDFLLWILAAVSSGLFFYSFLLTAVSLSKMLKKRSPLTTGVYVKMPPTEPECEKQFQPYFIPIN

For human IgG, the EC50 [1] was 42.1 nM and the EC50 [2] was 3.85 nM.

Reference: patent US20220332848A1
